The target in assay [1] is T1, MT-C34 peptide conjugated to bovine serum albumin (BSA-MT-C34 conjugate) (HIV-1, covalently conjugated to bovine serum albumin by the sulfo-SMCC linker).
T1 chain: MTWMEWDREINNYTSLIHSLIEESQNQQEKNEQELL
Briefly: ELISA; replicate mAb-3, slope x 10^-8 M.

Assay [2] concerns the target T1, MT-C34 peptide conjugated to bovine …. Briefly: ELISA; replicate chAb-1, slope x 10^-8 M.

B1: C24-6 mouse monoclonal antibody against the MT-C34 peptide (mAb) (antibody, V domains shown)
VH: EVQLVESGGDLVKPGGSLKLSCAASGFTFSRFGMSWGRQTPDKRLEWVATISTGGSYTYYPDSVKGRFTISRDNAKNSLYLQMSSLKSEDTAMYYCARHDDTAVYAMDYWGQGTSVTVSS
VL: DVVMTQTPLSLPVSLGDQASISCRSSQSLVHSDGDTYLHWYLQKPGQSPKLLIYKVSNRFSGVPDRFSGSGSGTDFTLKISRAEAEDLGVYFCSQSTHVPLTFGAGTKLELK
With B1, the Kd (in general, the constant that tells how readily two partners part at equilibrium) in assay [1] was found to be 2.26 nM.

B2: human chimeric anti-MT-C34 antibody (chAb) (antibody, V domains shown)
VH: EVQLVESGGDLVKPGGSLKLSCAASGFTFSRFGMSWGRQTPDKRLEWVATISTGGSYTYYPDSVKGRFTISRDNAKNSLYLQMSSLKSEDTAMYYCARHDDTAVYAMDYWGQGTSVTVSS
VL: DVVMTQTPLSLPVSLGDQASISCRSSQSLVHSDGDTYLHWYLQKPGQSPKLLIYKVSNRFSGVPDRFSGSGSGTDFTLKISRAEAEDLGVYFCSQSTHVPLTFGAGTKLELK
B2 returned a Kd in assay [2] of 1.14 nM.

(Values after publication PMC11428423 (2024).)
